Assay results from the nanobody polyreactivity screen of Harvey et al. (2022).

Experiment: yeast display, Sf9 membrane polyspecificity reagent, FACS + sequencing; frameworks hold sequencing errors
Summary of the method: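 Nanobodies came from a synthetic yeast display library in Saccharomyces cerevisiae BJ5465, induced with galactose for 36–48 hours and stained for 1 hour at 4 °C with 10% biotinylated, detergent-solubilized Sf9 membrane reagent. Cells were enriched on streptavidin microbeads and then FACS-sorted, with low and high (top ~1%) gates set on anti-HA fluorescence for expression and streptavidin fluorescence for reagent binding. Each polyreactivity label reflects the gate a clone came from. Genes were amplified by colony PCR, sequenced by MiSeq 2 × 250 and filtered by CDR length.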

Sequence | polyreactivity (PSR sort gate)
QVQLVESGGGLVQAGGSLRLSCAASGRNFEIYAMGWYRQAPGKERELVAAISWRGVSTYYADSVKGRFTISRDNAKNTVYLQMNSLKPEDTAVYYCNKDVDYFWYVEYDYWGQGTQVTVSS | low polyreactivity
QVQLVESGGGLVQAGGSLRLSCAASGRNFEQYAMGWYRQAPGKERELVAAISGSGGSTFYADSVKGRFTISRDNAKNTVYVQMNRLKPEDTAVYYCNAPGDGYLYDHTYDYWGQGTQVTVSS | low polyreactivity
QVQLVESGGGLVQAGGSLRLSCAASGRNFEVYTMGWYRQAPGTERELVDAIDRSTGSTYYADSVKGRFTISRDNAKNTVYLQMNSLKPEDTAVYDCAARGTFLGTRPLGRFDYWGQGTQVTVSS | low polyreactivity
QVQLVESGGGLVQAGGSLRLSCAASGRNFFYALGWYRQAPGKERELVASITTSGTSTYYADSVKGRFTISRDNAKNIVYLQMNSLKPEDTAVYYCNATSNSIRWYDLYYWGQGTKVTVSS | low polyreactivity
QVQLVESGGGLVQAGGSLRLSCAASGRNFGYYTMGWYRQAPGKERELVAAITSSGGRTYYADSVKGRFTISRDNAKNTVYLQMNSLIPEVTAVYYCNKVTYGYAYWRYDGYYYWGQGTQVTVSS | low polyreactivity
QVQLVESGGGLVQAGGSLRLSCAASGRNFLSYMGWYRQAPGKERELVAISRSGTSTYYADSVKGRFTISRDNAKNTVYLQMNSLKPEDTAVYYCAAEVLRDGWWGYYYWGQGTQVTVSS | high polyreactivity
QVQLVESGGGLVQAGGSLRLSCAASGRNFPRNVMGWYRQAPGKERELVAAITGSGSSTYYADSVKGRFTISRDIEKNTVYLQMNSLQPEDTAVYYCATIWRFKLGDYWGQGTQVTVSS | high polyreactivity
QVQLVESGGGLVQAGGSLRLSCAASGRNFPVYAMGCYRQAPGKERELVAAMTRSDDSTYYADSVKGRFTISRDNAKNTVYLQMNSLKPEDTAVYYCAADVEGWTVESDVYRVGYDFWGQGTQVTVSS | low polyreactivity
QVQLVESGGGLVQAGGSLRLSCAASGRNFPYYAMGWSRQAPGKERELVADISSSGGRTYYADSVKGRFTTSRDNAKNTVYLQMNSLKPEDTAVYYCNAESTYYPSGEDYWGQGTQVTVSS | low polyreactivity
QVQLVESGGGLVQAGGSLRLSCAASGRNFRVYAMGWYRQAPGKESELVAAITSGGTTYADSVKGRFTISRDNAKNTGYLQMNSLQPEDTAVYYCAARYYIHRGYDYDYWGQGTQVTVSS | high polyreactivity
QVQLVESGGGLVQAGGSLRLSCAASGRNFSGNTMGWYRQAPGKERELVAAITGRGGSTYYADSVKGRFTISRDNAKNTVYLQMNSLKPEDNAVYYCAALRYTFAGRFDYWGQGTQVTVSS | high polyreactivity
QVQLVESGGGLVQAGGSLRLSCAASGRNFYLYAMGWYRPAPGKERELVAAITRRGGSTYYADSVKGRFTISRDNAKNTVYLQMNSLKPEDTAVYYCAADRPGTGYSDYDYWGQGTQVTVSS | high polyreactivity
QVQLVESGGGLVQAGGSLRLSCAASGRNFYSYSMGWYRQEPGKERELVATITSNDGGTDYADSVKGRFTISRDNAKNTVYLQMNSLKPEDTAVYYCNAEDVLPEVGNRYNYWGQGTQVTVSS | low polyreactivity
QVQLVESGGGLVQAGGSLRLSCAASGRNFYYYAMGWYRQAPGKERELVATITGGGRTYYADSVKGRFTISRDNAKNTVYLQMHSLHPEDTAVYYCAAQYGGLSYRYDYWGQGTQVTVSS | high polyreactivity
QVQLVESGGGLVQAGGSLRLSCAASGRPFASYALGWYREAPGKERELVAVITRGVRTYYADSVKGRFTISRDNAKNTVYLQMNSLKPEDTAVYSCAKERYNANYDTSLYDYWGQGTQVTVSS | low polyreactivity
QVQLVESGGGLVQAGGSLRLSCAASGRPFGGNTMGWYRQAPGKERALVAAISFSGGSTYYADSVKGRFSSSRDNAKNTVYFQMNSLKPEDTAVYYCARDDYSHSFLTYDYWGQGTQVTVSS | low polyreactivity

Sequence | polyreactivity (PSR sort gate)
QVQLVESGGGLVQAGGSLRLSCAASGRPFGRYAMGWYRPAPGKERELVAAITGSGGSTYYADSVKGRYTMSRDNAKNTVYLQMNSLKPEDTAVYYCAAPQRYYYTAMGYWGQGTQVTVSS | high polyreactivity
QVQLVESGGGLVQAGGSLRLSCAASGRPFRLNGMGWYRQAPGKERELVAAITWSGGRTYYADSVKGRFTISRDNAKTTVYLQMNSLKPEDTAVYDCAADYRYKSHWWYRRFDYWGQGTQVTVSS | high polyreactivity
QVQLVESGGGLVQAGGSLRLSCAASGRSFDVNAMGWYRQAPGKERELVAAISTRGGGTYYADSVKGRFTISRDNAKTTVYLQMNSLKPEDTAVYYCNVVRRYGGRGFDYWGQGTQVTVSS | low polyreactivity
QVQLVESGGGLVQAGGSLRLSCAASGRSFDWDVLGWYSQVPGKERELVAAIDDSGGSTYYADSVKGRFTISRDNAKNTVYLQMNSLKPEDTAVYYCAAASYEYALDEHMDYWGQGTQVTGSS | low polyreactivity
QVQLVESGGGLVQAGGSLRLSCAASGRSFKKYAMGWYRQAPGKERELVAAITASGGSTYYADSVKGRYTISRDNAKNTVYLQMNSLTPEDTAVYYCAAYAYGVWHSQDGGNYWGQGTQVTVSS | low polyreactivity
QVQLVESGGGLVQAGGSLRLSCAASGRSFSPYAMGWYRQAPGKERELVAAISYDDGITYYADSVKGRFTISRDTAKNTVYLQMNSLKPEDTAVYYCAADSVTRPAGDYWGQGTQVTVSS | low polyreactivity
QVQLVESGGGLVQAGGSLRLSCAASGRSFSYNAMGWYRQAPGKERELVAAISYGGGRTYYADSVKGRFTISRDNAKNTVYLQMNSLKPEDTAVYYCNRYGRQYDFYYWGQGTQVSVSS | high polyreactivity
QVQLVESGGGLVQAGGSLRLSCAASGRSFTGNAMGWYRQAPGKERELVAAISWRGARTYYADSVKGRFTISRDNAKNTVYFQMNSLKPVDTGVYYCAAAYRGYARHDYWGQGTQVTVSS | high polyreactivity
QVQLVESGGGLVQAGGSLRLSCAASGRSFTGYAMGWYRQATGKERELVASISDSGASTYYADSVKGRFTISRDNAKNTVYLLMNSLKPEDTAVFYCAASYPSYNWSVGDDDYWGQGTQVTVSS | low polyreactivity
QVQLVESGGGLVQAGGSLRLSCAASGRSFYLYAMGWYRQAPGKERELVASISWNGGSTYYADSVKGRFTISRDNAKNTVYLQMNSLKPEDTAVYYCATDSHRSRLNRPYQLFPAYYYWGQGTQVTVSS | low polyreactivity
QVQLVESGGGLVQAGGSLRLSCAASGRSFYRYVMGWYRQAPGTERELVAAMTWSGGSTYYADSVKGRFTISRDNAKNTVYLQMNSLKPEDTAVYYCAADWSTWGVDYWGQGTQVTVSS | low polyreactivity
QVQLVESGGGLVQAGGSLRLSCAASGRSIKYYAMGWYRQAPGKERELVAAIRSTGGSTYYADSVKGRFTISRDNAKNTVYLQMNSLKPEDTAVYYCNARRYPRYVFSRYVYWGQGTQVNVSS | high polyreactivity
QVQLVESGGGLVQAGGSLRLSCAASGRTCGGYAMGWYRQEPGNERELVAAISYRGARTYYADSVKGRFTISRDNAKNTVYLQMNSRKPEDTAVYYCAASRPGLRTPGQMGYWGQGTQVTVSS | high polyreactivity
QVQLVESGGGLVQAGGSLRLSCAASGRTCRRYTIGWYRQAPGKERELVAAITSGGRTNYADSVKGRFTISRDNAKNTVYLQMNSLKPEDTAVYYCNAQNEIWRVTFSPYDRWGYDYWGQGTQVTVSS | low polyreactivity
QVQLVESGGGLVQAGGSLRLSCAASGRTFAANTMGWYRQAPGKERELVAAINSGGSTYYADSVKGRFTISRDNAKNTVYLHMNSLKPEATAVYYCAVSWWEVPRIFGYSSRYDYWGQGTQVTVSS | high polyreactivity
